The source of these data is paper PMC6753213.

Experiment [1] deals with AMC011 SOSIP-I53-50A (HIV-1 (AMC011, Clade B)). The experiment is described as follows: not stated; purified fusion proteins; result shown in Supplementary Fig. 2d, e (not shown).
Experiment [2] deals with BG505 SOSIP-I53-50A.1NT1 (HIV-1 (BG505)) (UniProt Q2N0S6). Nature of the experiment: SEC; SOSIP fusion protein after PGT145 purification, Superose 6 Increase, Assembly Buffer II (25 mM Tris, 500 mM NaCl, 5% glycerol pH 8.2); trimer and aggregate peaks. Background: SEC sorts molecules by how far they enter the pores of the column.
Experiment [3] has the same target. Nature of the experiment: negative-stain EM.
The target in experiment [4] is ConM SOSIP-I53-50A (HIV-1 (consensus of Group M)). The experiment is described as follows: not stated; purified fusion proteins; result shown in Supplementary Fig. 2d, e (not shown).
In experiment [5] the target is ZM197M SOSIP-I53-50A (HIV-1 (ZM197M, Clade C)). The experiment is described as above.

For the substance AMC011 SOSIP-I53-50A (designed binder), the stoichiometry N (as a rule, the number of molecules, sites or subunits per partner or assembly) in experiment [1] was 3. For the substance “BG505 SOSIP-I53-50A.1NT1 (from UniProt Q2N0S6) (designed binder)”, the stoichiometry N in experiment [2] and in experiment [3] was 3 in each case.

In experiment [4], ConM SOSIP-I53-50A (designed binder) registered a stoichiometry N of 3. ZM197M SOSIP-I53-50A (designed binder) had a stoichiometry N in experiment [5] of 3.
